The series addresses T1, IκBα, P25963.
T1 chain: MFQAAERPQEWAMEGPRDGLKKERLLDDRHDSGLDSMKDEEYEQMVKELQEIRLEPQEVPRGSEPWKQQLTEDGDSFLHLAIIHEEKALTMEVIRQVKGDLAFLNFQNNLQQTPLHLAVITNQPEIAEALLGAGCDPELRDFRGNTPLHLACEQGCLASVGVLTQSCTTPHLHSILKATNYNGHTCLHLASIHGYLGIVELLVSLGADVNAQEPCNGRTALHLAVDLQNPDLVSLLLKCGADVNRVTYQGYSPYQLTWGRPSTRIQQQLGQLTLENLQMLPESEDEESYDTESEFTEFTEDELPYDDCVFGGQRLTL

B1: Tissue transglutaminase (TG2, EC 2.3.2.13) (protein)
chain: AEELVLERCDLELETNGRDHHTADLCREKLVVRRGQPFWLTLHFEGRNYEASVDSLTFSVVTGPAPSQEAGTKARFPLRDAVEEGDWTATVVDQQDCTLSLQLTTPANAPIGLYRLSLEASTGYQGSSFVLGHFILLFNAWCPADAVYLDSEEERQEYVLTQQGFIYQGSAKFIKNIPWNFGQFEDGILDICLILLDVNPKFLKNAGRDCSRRSSPVYVGRVVSGMVNCNDDQGVLLGRWDNNYGDGVSPMSWIGSVDILRRWKNHGCQRVKYGQCWVFAAVACTVLRCLGIPTRVVTNYNSAHDQNSNLLIEYFRNEFGEIQGDKSEMIWNFHCWVESWMTRPDLQPGYEGWQALDPTPQEKSEGTYCCGPVPVRAIKEGDLSTKYDAPFVFAEVNADVVDWIQQDDGSVHKSINRSLIVGLKISTKSVGRDEREDITHTYKYPEGSSEEREAFTRANHLNKLAEKEETGMAMRIRVGQSMNMGSDFDVFAHITNNTAEEYVCRLLLCARTVSYNGILGPECGTKYLLNLNLEPFSEKSVPLCILYEKYRDCLTESNLIKVRALLVEPVINSYLLAERDLYLENPEIKIRILGEPKQKRKLVAEVSLQNPLPVALEGCTFTVEGAGLTEEQKTVEIPDPVEAGEEVKVRMDLLPLHMGLHKLVVNFESDKLKAVKGFRNVIIGPA
Regarding B1, the “in vitro BPA labeling of IκBα immunoprecipitates in the presence of Ca2+ (3 mM), probed with horseradish peroxidase-conjugated streptavidin” value was “demonstrated the presence of high-molecular-weight forms (dimeric and polymeric) of IκBα”.

The values above are taken from patent US20080279844.
